According to patent US20190161555A1:
Numbering of substitutions follows the chain as printed.

B1: 1526/1527 (antibody, V domains shown)
VH: EVQLLESGGGLVQPGGSLRLSCAASGFTFSGYSMYWVRQAPGKGLEWVSGIGYSGYGTYYADSVKGRFTISRDNSKNTLYLQMNSLRAEDTAVYYCARYYFHDYAAYSLDYWGQGTLVTVSS
VL: DIQMTQSPSSLSASVGDRVTITCRASQSISSYLNWYQQKPGKAPKLLIYAASSLQSGVPSRFSGSGSGTDFTLTISSLQPEDFATYYCQQYGSDSLLTFGQGTKLEIK
B2: 1524/1525 (antibody, V domains shown)
VH: EVQLLESGGGLVQPGGSLRLSCAASGFTFGSYYMGWVRQAPGKGLEWVSSIGSYYGYTYYADSVKGRFTISRDNSKNTLYLQMNSLRAEDTAVYYCARHDYGALDYWGQGTLVTVSS
VL: B1 VL with S93P, D94S, S95G, L97F
B3: 1166/1167 (antibody, V domains shown)
VH: EVQLLESGGGLVQPGGSLRLSCAASGFTFGGYYMSWVRQAPGKGLEWVSAISGSGGSTYYADSVKGRFTISRDNSKNTLYLQMNSLRAEDTAVYYCARYDYASMDYWGQGTLVTVSS
VL: B1 VL with G92Y, S93W, D94Y, S95G, L97S
B4: 1514/1515 (antibody, V domains shown)
VH: EVQLLESGGGLVQPGGSLRLSCAASGFTFGYYYMSWVRQAPGKGLEWVSGISSYGSYTYYADSVKGRFTISRDNSKNTLYLQMNSLRAEDTAVYYCARSGYSNWANSFDYWGQGTLVTVSS
VL: DIQMTQSPSSLSASVGDRVTITCRASQSISSYLNWYQQKPGKAPKLLIYAASSLQSGVPSRFSGSGSGTDFTLTISSLQPEDFATYYCQQGDYTLFTFGQGTKLEIK
B5: 1212/1213 (antibody, IgG1, V domains shown)
VH: EVQLLESGGGLVQPGGSLRLSCAASGFTFSSYAMSWVRQAPGKGLEWVSYISSYGGYTSYADSVKGRFTISRDNSKNTLYLQMNSLRAEDTAVYYCARYHSGVLDYWGQGTLVTVSS
VL: B1 VL with G92Y, S93Y, D94H, S95Y
B6: 1206/1207 (antibody, V domains shown)
VH: EVQLLESGGGLVQPGGSLRLSCAASGFTFSGSSMSWVRQAPGKGLEWVSSIYYSGSGTYYADSVKGRFTISRDNSKNTLYLQMNSLRAEDTAVYYCARYGRNVHPYNLDYWGQGTLVTVSS
VL: B4 VL with D92Y, T94Y, F96P

Molecular target: Chimeric OX40 construct 1544 (human; mouse) (UniProt P47741)
Sequence (P43489 other isoform, or with tags, fused parts or gaps mutant, form in doubt): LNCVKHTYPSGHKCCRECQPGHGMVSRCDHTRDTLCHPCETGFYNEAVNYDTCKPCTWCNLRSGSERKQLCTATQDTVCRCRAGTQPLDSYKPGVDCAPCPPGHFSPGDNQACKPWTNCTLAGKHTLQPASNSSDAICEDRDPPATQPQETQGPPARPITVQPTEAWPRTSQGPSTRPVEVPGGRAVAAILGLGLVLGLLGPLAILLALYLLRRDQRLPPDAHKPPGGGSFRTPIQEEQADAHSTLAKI
Experiment: flow cytometry, 293-F cells transfected with the construct

Row | Binder | relative MFI (fold over isotype control)
1 | B1 | 1.1
2 | B2 | 1.5
3 | B3 | 14.2
4 | B4 | 11.6

Molecular target: Chimeric OX40 construct 1545 (human; mouse) (UniProt P43489)
Sequence (P43489 other isoform, or with tags, fused parts or gaps mutant, form in doubt): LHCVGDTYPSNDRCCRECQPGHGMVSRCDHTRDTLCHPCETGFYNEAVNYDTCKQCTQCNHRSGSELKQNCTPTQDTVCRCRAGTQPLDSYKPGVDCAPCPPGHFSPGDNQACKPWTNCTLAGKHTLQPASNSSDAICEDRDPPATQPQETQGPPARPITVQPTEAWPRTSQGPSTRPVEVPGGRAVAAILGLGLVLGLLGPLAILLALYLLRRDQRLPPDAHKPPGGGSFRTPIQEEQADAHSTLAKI
Experiment: as above

Row | Binder | relative MFI (fold over isotype control)
5 | B1 | 1.3
6 | B2 | 0.9
7 | B3 | 1
8 | B4 | 1.2

Molecular target: Chimeric OX40 construct 1546 (human; mouse) (UniProt P43489)
Sequence (P43489 other isoform, or with tags, fused parts or gaps mutant, form in doubt): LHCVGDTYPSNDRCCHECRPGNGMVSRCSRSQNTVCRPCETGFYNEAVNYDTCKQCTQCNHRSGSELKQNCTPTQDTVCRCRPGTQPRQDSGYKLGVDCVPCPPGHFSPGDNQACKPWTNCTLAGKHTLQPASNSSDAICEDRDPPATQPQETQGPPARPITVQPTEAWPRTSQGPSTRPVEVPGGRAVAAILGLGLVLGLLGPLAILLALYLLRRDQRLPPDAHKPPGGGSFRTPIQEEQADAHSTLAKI
Experiment: as above

Row | Binder | relative MFI (fold over isotype control)
9 | B1 | 0.9
10 | B2 | 0.9
11 | B3 | 0.8
12 | B4 | 0.9

Molecular target: Chimeric OX40 construct 1547 (human; mouse) (UniProt P43489)
Sequence (P43489 other isoform, or with tags, fused parts or gaps mutant, form in doubt): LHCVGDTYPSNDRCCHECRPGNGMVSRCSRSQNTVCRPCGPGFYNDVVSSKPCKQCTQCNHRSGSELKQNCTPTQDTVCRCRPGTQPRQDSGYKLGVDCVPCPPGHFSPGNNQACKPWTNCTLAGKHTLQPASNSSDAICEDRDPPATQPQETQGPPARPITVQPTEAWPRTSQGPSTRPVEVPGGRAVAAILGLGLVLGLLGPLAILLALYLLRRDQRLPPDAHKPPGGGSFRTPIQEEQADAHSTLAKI
Experiment: as above

Row | Binder | relative MFI (fold over isotype control)
13 | B1 | 1
14 | B2 | 1
15 | B3 | 15.2
16 | B4 | 1.1

Molecular target: Chimeric OX40 construct 1548 (human; mouse) (UniProt P43489)
Sequence (P43489 other isoform, or with tags, fused parts or gaps mutant, form in doubt): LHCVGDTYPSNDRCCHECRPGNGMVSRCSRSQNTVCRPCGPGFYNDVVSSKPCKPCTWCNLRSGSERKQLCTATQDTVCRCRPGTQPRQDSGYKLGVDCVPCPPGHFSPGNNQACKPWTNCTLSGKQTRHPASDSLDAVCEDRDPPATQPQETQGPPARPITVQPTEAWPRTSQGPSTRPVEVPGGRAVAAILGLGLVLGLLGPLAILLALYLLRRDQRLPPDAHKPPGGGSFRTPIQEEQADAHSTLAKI
Experiment: as above

Row | Binder | relative MFI (fold over isotype control)
17 | B1 | 12.7
18 | B2 | 15.4
19 | B3 | 15.8
20 | B4 | 17.2

Molecular target: Chimeric OX40 construct 1549 (human; mouse) (UniProt P47741)
Experiment: as above

Row | Binder | relative MFI (fold over isotype control)
21 | B1 | 8.5
22 | B2 | 11.2
23 | B3 | 11.3
24 | B4 | 10.6

Molecular target: human/mouse 5T4 chimera aa173-420 (human; mouse) (UniProt Q13641)
Sequence (Q13641 other isoform, or with tags, fused parts or gaps mutant limits assumed, form in doubt): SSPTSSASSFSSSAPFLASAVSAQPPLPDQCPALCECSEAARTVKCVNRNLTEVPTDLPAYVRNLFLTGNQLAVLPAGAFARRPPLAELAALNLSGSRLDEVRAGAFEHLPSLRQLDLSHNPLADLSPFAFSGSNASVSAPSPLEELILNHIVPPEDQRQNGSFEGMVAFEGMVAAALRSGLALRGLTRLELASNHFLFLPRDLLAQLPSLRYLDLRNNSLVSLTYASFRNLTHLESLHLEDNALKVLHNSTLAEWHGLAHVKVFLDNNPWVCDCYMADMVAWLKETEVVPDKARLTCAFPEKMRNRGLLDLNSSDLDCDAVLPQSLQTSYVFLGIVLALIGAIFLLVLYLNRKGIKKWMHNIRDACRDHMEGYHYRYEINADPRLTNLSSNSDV
Experiment: flow cytometry, cells with 5T4 chimera; % positive cells over that of the best clone

Row | Binder | normalized % positive cells
25 | B5 | -0.01
26 | B6 | 0.3
